Assay results: patent publication US20230183665A1, “THERMOSTABLE GLUCOCEREBROSIDASE” (TEIKYO UNIVERSITY, priority 2020, published 2023)
Each block holds one molecule with its values, some of them ahead of it.

What was measured:
RGC1 = target: T1, RGC1 (Oryza sativa subsp. japonica, UniProt Q8L7J2); assay: Substrate specificity of RGC1: ceramide generated from glucosylceramide or synthetic β-glucoside substrates (Example 3); assay type: biochemical, rice (Oryza sativa L. cv. Nipponbare); conditions: enzyme RGC1, 12.5 μM substrate, pH 5.5, 37° C., 15 minutes; for Relative activity (%): activity with d18:1(4E)-C8:0-GluCer defined as 100, average of five tests
T1 construct: The resulting solution was used as rice-derived glucocerebrosidase (RGC1); from tissue; host or cells: stems of rice (Oryza sativa L. cv. Nipponbare)
T1 sequence (Q8L7J2 38-521 limits assumed): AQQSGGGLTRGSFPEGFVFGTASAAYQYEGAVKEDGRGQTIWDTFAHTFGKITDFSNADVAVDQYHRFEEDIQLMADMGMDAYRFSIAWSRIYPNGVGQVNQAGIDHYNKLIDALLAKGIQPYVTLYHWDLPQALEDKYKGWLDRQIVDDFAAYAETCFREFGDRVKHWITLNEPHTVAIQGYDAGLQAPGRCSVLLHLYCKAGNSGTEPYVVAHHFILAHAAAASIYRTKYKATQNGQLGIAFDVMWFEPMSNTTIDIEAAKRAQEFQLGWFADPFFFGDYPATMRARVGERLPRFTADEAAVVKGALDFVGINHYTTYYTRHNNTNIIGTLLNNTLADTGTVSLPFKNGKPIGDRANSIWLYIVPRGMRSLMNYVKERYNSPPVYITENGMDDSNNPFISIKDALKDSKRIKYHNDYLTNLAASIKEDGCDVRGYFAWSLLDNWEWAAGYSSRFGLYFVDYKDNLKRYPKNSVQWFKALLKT
Procedure: (§1) The glucocerebrosidase activity of the fraction was measured as follows: a predetermined amount of sample was added to a 50 mM acetate buffer solution (pH 5.5) containing 100 μM glucosylceramide (cerebroside B), 0.1% Tween 20, and 0.05% sodium cholate, and incubated at 37° C. for 15 minutes. Subsequently, a 4-fold amount of ethanol was added to the obtained reaction solution, mixed therewith, and then centrifuged at 15000 rpm for 20 minutes. The centrifuged supernatant was subjected to high-performance liquid chromatography analysis. In the high-performance liquid chromatography analysis, the sample was injected to TSKgel ODS-120T column (4.6 mm×30 cm), and a solvent having an ethanol concentration of 83% was flowed at a flow rate of 0.8 mL/min, followed by detection in a UV detector (ultraviolet absorption wavelength: 215 nm) to thereby measure the amount of ceramide newly generated through enzymatic reaction. The amount of ceramide was determined by using, as a standard, ceramide generated from cerebroside B by imiglucerase (manufactured by Sanofi S. A.), human-derived glucocerebrosidase. The molecular weight of the generated ceramide was examined by negative LC-MS (manufactured by Agilent Technologies, Inc.) to thereby confirm that it was ceramide generated from cerebroside B (ESI-MS m/z: 564.5[M-H]^−). Glucocerebrosidase activity per mL of the enzyme solution was calculated when the amount of the enzyme that generated 1 μmol of ceramide for 1 minute in the enzymatic reaction solution was defined as 1 unit (U).
RGC1 obtained in Example 2 was added to 12.5 μM glucosylceramide (one of the 12 animal-derived, plant-derived, or filamentous fungus-derived ones in Table 2 below) or synthetic β-glucoside, and a 50 mM acetate buffer solution (pH 5.5) containing 0.1% Tween 20 and 0.05% sodium cholate, and incubated at 37° C. for 15 minutes. Subsequently, a 4-fold amount of ethanol was added to the obtained reaction solution, mixed therewith, and then centrifuged under a condition of 15000 rpm for 20 minutes. The amount of ceramide in the supernatant was measured by high-performance liquid chromatography using various reverse-phase columns to thereby determine glucocerebrosidase activity. The amount of ceramide was determined by using, as a standard, ceramide generated from the glucosylceramide by imiglucerase. The glucocerebrosidase activity was determined as relative activity when activity in the case of using animal-derived glucosylceramide d18:1(4E)-C8:0-GluCer as a substrate was defined as 100 (rightmost column of Table 2 below). This test was conducted five times, and average relative activity was determined therefrom.

[1] = Optimum temperature for glucocerebrosidase activity (Examples 5, 12, 20); assay type: biochemical
Procedure: as §1
RGC1 obtained in Example 2 and imiglucerase were each added to a 50 mM acetate buffer solution (pH 5.5) containing 100 μM glucosylceramide (cerebroside B), 0.1% Tween 20, and 0.05% sodium cholate, and incubated at each temperature for 15 minutes. Subsequently, a 4-fold amount of ethanol was added to the obtained reaction solution, mixed therewith, and then centrifuged under a condition of 15000 rpm for 20 minutes. The supernatant was subjected to high-performance liquid chromatography analysis to measure the amount of ceramide generated through enzymatic reaction. The high-performance liquid chromatography analysis was carried out in the same manner as in Example 2. The amount of ceramide and enzymatic activity were also calculated in the same manner as in Example 2. A temperature that attained the highest glucocerebrosidase activity was regarded as the optimum temperature. This test was conducted three times, and an average value was determined therefrom.
The optimum temperatures for the glucocerebrosidase activity of SGC1 obtained in Example 11 and imiglucerase were confirmed by the same method as in Example 5.
Enzyme extracts derived from various plants which were obtained in accordance with Example 19, the purified rice-derived RGC1 mentioned above and the purified soybean-derived SGC1 mentioned above were each added to a 50 mM sodium acetate buffer solution (pH 5.5) containing 100 μM glucosylceramide (cerebroside B), 0.1% Tween 20, and 0.05% sodium cholate, and incubated at each temperature for 15 minutes. Subsequently, a 4-fold amount of ethanol was added to the obtained reaction solution, mixed therewith, and then centrifuged at 15000 rpm for 20 minutes. The supernatant was subjected to high-performance liquid chromatography analysis to measure the amount of ceramide generated through enzymatic reaction. The high-performance liquid chromatography analysis was carried out in the same manner as in Example 5. The amount of ceramide and enzymatic activity were also calculated in the same manner as in Example 5. As a result, a temperature that attained the highest glucocerebrosidase activity was regarded as the optimum temperature. This test was conducted three times, and an average value was determined therefrom.

[2] = Thermostability: relative residual glucocerebrosidase activity after incubation at pH 5 and pH 7 (Examples 6, 13); assay type: physicochemical; conditions: 45° C.; pH 5 for 1 to 31 hours, pH 7 for 0.3 to 5 hours; FIGS. 3 and 4
Procedure: The glucocerebrosidase activity of the fraction was measured as follows: a predetermined amount of sample was added to a 50 mM acetate buffer solution (pH 5.5) containing 100 μM glucosylceramide (cerebroside B), 0.1% Tween 20, and 0.05% sodium cholate, and incubated at 37° C. for 15 minutes. Subsequently, a 4-fold amount of ethanol was added to the obtained reaction solution, mixed therewith, and then centrifuged at 15000 rpm for 20 minutes. The centrifuged supernatant was subjected to high-performance liquid chromatography analysis. […] The amount of ceramide was determined by using, as a standard, ceramide generated from cerebroside B by imiglucerase (manufactured by Sanofi S. A.), human-derived glucocerebrosidase. […] Glucocerebrosidase activity per mL of the enzyme solution was calculated when the amount of the enzyme that generated 1 μmol of ceramide for 1 minute in the enzymatic reaction solution was defined as 1 unit (U).
RGC1 obtained in Example 2 and imiglucerase were each incubated at pH 5 simulating lysosome (50 mM acetate buffer solution (pH 5.0) containing 0.1% Triton X-100 and 0.05% sodium cholate) at 37° C. for 6 to 106 hours or at pH 7 simulating cytoplasm (50 mM potassium phosphate buffer solution (pH 7.0) containing 0.1% Triton X-100 and 0.05% sodium cholate) at 37° C. for 4 to 48 hours. […] This test was conducted three times, and an average value was determined therefrom. […]

[3] = Example 12, same method as Example 5
[4] = Example 20, 100 μM cerebroside B, pH 5.5, 15 minutes at each temperature, average of three tests

Molecule: CCCCCCCCCCCCCC[C@@H](O)C(=O)N[C@@H](CO[C@@H]1O[C@H](CO)[C@@H](O)[C@H](O)[C@H]1O)[C@H](O)/C=C/CC/C=C(\C)CCCCCCCCC [d19:2(4E,8E,9Me)-C16h:0-GluCer, (4E,8E)-N-D-2′-hydroxypalmitoyl-1-O-β-D-glucopyranosyl-9-methyl-4,8-sphingadienine]
- Relative activity (%) (RGC1): 116.7%

Molecule: CCCCCCCCCCCCC/C=C/[C@@H](O)[C@H](CO[C@@H]1O[C@H](CO)[C@@H](O[C@@H]2O[C@H](CO)[C@H](O)[C@H](O[C@]3(C(=O)O)C[C@H](O)[C@@H](NC(C)=O)C([C@H](O)[C@H](O)CO)O3)[C@H]2O)[C@H](O)C1O)NC(=O)CCCCCCCCCCCCCCCCC (some centres unmarked) [d18:1(4E)-C18:0-GM3]
- reaction of RGC1 with the substrate (in words) (RGC1): rarely reacted

B1: SGC1: soybean-derived glucocerebrosidase purified from soybean stems; identical to β-glucosidase 40, belongs to GH1; SEQ ID NO: 2 (protein)
chain: MAFRGGTMLILTMMALLEIQICSSEINRGNFPNGFVFGTASSAFQYEGAVKEDGRGPSVWDTFSHTFGKIIDFSNADVAVDQYHRYEEDIQLMKDMGMDAYRFSISWSRIFPNGYGQINQAGVDHYNKLINALLAKGIEPYVTLYHWDLPQALENKYSGWLNASIIMDFATYAETCFQKFGDRVKHWITFNEPHTFATQGYDVGLQAPGRCSILLHLFCRAGNSATEPYIVAHNVLLSHATVADIYRKKYKKIQGGSLGVAFDVIWYEPLTNTKEDIDAAQRAQDFQLGWFLDPLMFGDYPSSMRTRVGSRLPKFSQSEAALVKGSLDFVGINHYTTFYAKDNSTNLIGTLLHDSIADSGAVTLPFNGTKAISERASSIWLYIVPQSMRSLMIYIKQKYGNPPVYITENGMDDPNSIFISIKDALKDEKRIRYHTGYLSYLLASIKDGCNVKGYFVWSLLDNWEWSAGYTSRFGLYFVDYKDNLKRYPKQSVEWFKNFLKPTK
modifications: Oryza sativa L. cv. Nipponbare
- Optimum temperature (° C.) [1, 3]: 64.0 °C
- Optimum temperature (° C.) [1, 4]: 64.0 °C
- stability (relative residual activity) compared with imiglucerase [2]: evidently much superior in stability to imiglucerase

B2: Imiglucerase: human-derived glucocerebrosidase produced in Chinese hamster ovary cells by gene recombination (Sanofi S. A.), belonging to GH30 (protein, UniProt P04062 40-536, looked up)
Lysosomal acid …: ARPCIPKSFGYSSVVCVCNATYCDSFDPPTFPALGTFSRYESTRSGRRMELSMGPIQANHTGTGLLLTLQPEQKFQKVKGFGGAMTDAAALNILALSPPAQNLLLKSYFSEEGIGYNIIRVPMASCDFSIRTYTYADTPDDFQLHNFSLPEEDTKLKIPLIHRALQLAQRPVSLLASPWTSPTWLKTNGAVNGKGSLKGQPGDIYHQTWARYFVKFLDAYAEHKLQFWAVTAENEPSAGLLSGYPFQCLGFTPEHQRDFIARDLGPTLANSTHHNVRLLMLDDQRLLLPHWAKVVLTDPEAAKYVHGIAVHWYLDFLAPAKATLGETHRLFPNTMLFASEACVGSKFWEQSVRLGSWDRGMQYSHSIITNLLYHVVGWTDWNLALNPEGGPNWVRNFVDSPIIVDITKDTFYKQPMFYHLGHFSKFIPEGSQRVGLVASQKNDLDAVALMHPDGSAVVVVLNRSSKDVPLTIKDPAVGFLETISPGYSIHTYLWRRQ
modifications: imiglucerase
notes: human-derived glucocerebrosidase produced in Chinese hamster ovary cells by gene recombination (Sanofi S. A.), belonging to GH30
- Optimum temperature (° C.) ([1]; Example 5, 100 μM cerebroside B, pH 5.5, 15 minutes at each temperature, average of three tests): 42.5 °C
- Optimum temperature (° C.) [1, 3]: 42.5 °C
- Optimum temperature (° C.) [1, 4]: 42.5 °C

Continued, values first:

- reaction of RGC1 with the substrate (in words) (RGC1): rarely reacted
- Relative activity (%) (RGC1): 2.5%
Molecule: O=[N+]([O-])c1ccc(O[C@@H]2O[C@H](CO)[C@@H](O)[C@H](O)[C@H]2O)cc1 [pNP-β-glucoside, 4-nitrophenyl-β-D-glucopyranoside]

- Relative activity (%) (RGC1): 113.2%
Molecule: CCCCCCCCCCCCCC/C=C/[C@@H](O)C(=O)N[C@@H](CO[C@@H]1O[C@H](CO)[C@@H](O)[C@H](O)[C@H]1O)[C@H](O)/C=C/CC/C=C(\C)CCCCCCCCC [d19:2(4E,8E,9Me)-C18h:1-GluCer, (4E,8E)-N-D-2′-hydroxy-(E)-3′-octadecenoyl-1-O-β-D-glucopyranosyl-9-methyl-4,8-sphingadienine]
